Data taken from US20140322218A1 (Amgen, published 2014).
Substitutions are numbered along the chain they refer to. In names and notes the source's numbering stands.

T1: rhCDH19(1-43)::FLAG::rhCDH19(44-772), on 293T cells (rhesus macaque, UniProt Q9H159 44-772 (human entry))
T1 construct: Entry holds leader (1-43), Flag tag and CDH19 part; leader left out; also called Rh EC1-5
T1 chain: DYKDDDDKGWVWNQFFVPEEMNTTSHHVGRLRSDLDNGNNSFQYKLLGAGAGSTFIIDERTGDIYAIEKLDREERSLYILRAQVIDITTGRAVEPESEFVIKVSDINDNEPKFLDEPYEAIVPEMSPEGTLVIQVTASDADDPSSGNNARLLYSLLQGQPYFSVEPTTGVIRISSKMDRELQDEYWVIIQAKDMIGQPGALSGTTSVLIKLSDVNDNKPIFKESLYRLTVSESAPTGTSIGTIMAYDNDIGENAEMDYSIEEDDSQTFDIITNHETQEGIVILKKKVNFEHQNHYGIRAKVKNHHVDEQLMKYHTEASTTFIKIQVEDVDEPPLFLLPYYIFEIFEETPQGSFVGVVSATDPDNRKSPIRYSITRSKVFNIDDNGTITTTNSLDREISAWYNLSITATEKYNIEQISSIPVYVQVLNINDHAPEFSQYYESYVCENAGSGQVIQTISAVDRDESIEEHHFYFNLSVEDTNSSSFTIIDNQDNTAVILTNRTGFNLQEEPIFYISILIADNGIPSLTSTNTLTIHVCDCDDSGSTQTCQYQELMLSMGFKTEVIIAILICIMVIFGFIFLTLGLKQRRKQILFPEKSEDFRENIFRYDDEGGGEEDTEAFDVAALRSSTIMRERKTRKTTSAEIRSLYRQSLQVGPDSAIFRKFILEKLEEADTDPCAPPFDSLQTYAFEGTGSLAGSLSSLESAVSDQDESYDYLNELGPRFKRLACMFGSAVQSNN

T2: raCDH19(1-43)::FLAG::raCDH19(44-770), on 293T cells (rat)
T2 construct: Entry holds leader (1-43), Flag tag and CDH19 part; leader left out; also called Ra EC1-5
T2 chain: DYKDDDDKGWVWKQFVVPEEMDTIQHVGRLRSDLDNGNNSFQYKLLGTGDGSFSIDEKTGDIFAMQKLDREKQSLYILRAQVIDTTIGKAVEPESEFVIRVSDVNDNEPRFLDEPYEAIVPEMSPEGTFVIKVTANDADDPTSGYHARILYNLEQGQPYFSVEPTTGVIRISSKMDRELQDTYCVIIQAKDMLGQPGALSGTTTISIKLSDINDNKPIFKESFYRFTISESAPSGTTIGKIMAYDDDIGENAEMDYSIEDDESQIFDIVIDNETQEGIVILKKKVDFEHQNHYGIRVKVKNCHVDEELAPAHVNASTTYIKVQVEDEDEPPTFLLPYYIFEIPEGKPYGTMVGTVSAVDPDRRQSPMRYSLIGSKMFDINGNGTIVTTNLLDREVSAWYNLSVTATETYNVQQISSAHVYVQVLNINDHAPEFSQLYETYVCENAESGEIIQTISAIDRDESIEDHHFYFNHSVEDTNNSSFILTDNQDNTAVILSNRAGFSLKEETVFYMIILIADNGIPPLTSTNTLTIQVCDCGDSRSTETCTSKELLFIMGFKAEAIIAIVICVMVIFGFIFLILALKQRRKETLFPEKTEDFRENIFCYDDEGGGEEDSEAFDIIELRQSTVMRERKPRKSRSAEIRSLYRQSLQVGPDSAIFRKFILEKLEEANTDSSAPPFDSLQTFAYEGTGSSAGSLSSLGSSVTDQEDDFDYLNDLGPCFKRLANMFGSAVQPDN

T3: muCDH19(44-770), Flag-tagged, on 293T cells (mouse)
T3 construct: also called Mu EC1-5
T3 chain: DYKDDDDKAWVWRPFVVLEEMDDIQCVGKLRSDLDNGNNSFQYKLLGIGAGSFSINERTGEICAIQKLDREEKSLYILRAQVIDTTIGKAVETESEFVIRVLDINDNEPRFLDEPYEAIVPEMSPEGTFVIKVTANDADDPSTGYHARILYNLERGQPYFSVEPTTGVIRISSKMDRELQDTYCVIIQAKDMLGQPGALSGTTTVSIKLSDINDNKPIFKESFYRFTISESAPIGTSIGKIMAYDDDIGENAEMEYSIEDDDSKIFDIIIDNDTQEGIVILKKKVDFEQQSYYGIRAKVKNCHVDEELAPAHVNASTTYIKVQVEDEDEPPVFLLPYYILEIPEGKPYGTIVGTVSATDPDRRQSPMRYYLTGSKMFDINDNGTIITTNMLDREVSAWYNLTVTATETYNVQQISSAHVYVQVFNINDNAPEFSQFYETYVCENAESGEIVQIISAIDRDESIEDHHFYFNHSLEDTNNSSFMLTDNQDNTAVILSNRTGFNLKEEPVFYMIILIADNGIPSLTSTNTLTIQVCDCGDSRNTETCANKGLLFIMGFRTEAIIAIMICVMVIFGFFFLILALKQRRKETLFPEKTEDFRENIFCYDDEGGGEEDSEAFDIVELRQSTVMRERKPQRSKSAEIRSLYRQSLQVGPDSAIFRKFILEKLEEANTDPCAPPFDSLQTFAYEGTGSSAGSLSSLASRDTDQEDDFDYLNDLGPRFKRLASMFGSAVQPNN

B1: anti-CDH19 antibody 2G6 (Ab ID 13588) (antibody, human IgG1, lambda, V domains shown)
VH: QVQLVESGGGVVQPGRSLRLSCAASGFTFSSYGMHWVRQAPGKGLEWVAFIWYDGSNKYYADSVKDRFTISRDNSKNTLYLQMKSLRAEDTAVYYCARRAGIIGTIGYYYGMDVWGQGTTVTVSS
VL: SYELTQPPSVSVSPGQTASITCSGDRLGEKYTCWYQQRPGQSPLLVIYQDTKRPSGIPERFSGSNSGNTATLTISGTQAMDEADYYCQAWDSSTVVFGGGTKLTVLG
B2: hu anti-<huCDH19> 23A10.3 (1-474)(L92Q) VH::huIgG1z / 23A10.3 (1-231)(C42S) VL::huLLC-C2 (Ab ID 14077) (antibody, V domains shown)
VH: B1 VH with S31R, M34I, F50V, D66G, K84N, T91S, I103P, I106T
VL: B1 VL with T32V, C33S, R38K, L44I, T51N, R53W
notes: Engineered variant of 23A10
B3: hu anti-<huCDH19> 4B10 VH::huIgG1z / 4B10 VL::huKLC (Ab ID 13590) (antibody, V domains shown)
VH: QVQLVESGGGVVQPGRSLRLSCAASGFTFSSYDMHWVRQAPGKGLEWVAVISYDGTNEYYADSVKGRFTISRDTSKNTLYLQMNSLRAEDTAVYYCARERYFDWSFDYWGQGTLVSVSS
VL: EIVLTQSPGTLSLSPGERATLSCRASQSVSNTYLAWYHQRPGQAPRLLIYGASSRATGIPDRFSGSGSGTDFALTISSLEPEDFAVYYCQQYSNSWTFGQGTKVEIKR
B4: hu anti-<huCDH19> 25F8.1 (1-469)(F90Y) VH::huIgG1z / 25F8.1 (1-235)(K45Q,S102A,D111E) VL::huLLC-C2 (Ab ID 14096) (antibody, V domains shown)
VH: QVQLVQSGAEVKKPGASVKVSCKASGYTFTSYYIHWVRQAPGQGLEWMGIINPSGGSTRYAQKFQGRVTMTRDTSTSTVYMELSSLRSEDTAVYYCARGGIQLWLHFDYWGQGTLVTVSS
VL: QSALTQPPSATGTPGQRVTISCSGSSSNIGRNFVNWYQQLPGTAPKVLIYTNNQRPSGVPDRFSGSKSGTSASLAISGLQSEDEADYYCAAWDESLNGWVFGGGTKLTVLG
notes: Engineered variant of 25F8
B5: hu anti-<huCDH19> 26D1.1 VH::huIgG1z / 26D1.1 VL::huLLC-C2 (Ab ID 13882) (antibody, V domains shown)
VH: B4 VH with G26R, I34M, H35S, N52H, S57D, R59T, R72G, Q102K
VL: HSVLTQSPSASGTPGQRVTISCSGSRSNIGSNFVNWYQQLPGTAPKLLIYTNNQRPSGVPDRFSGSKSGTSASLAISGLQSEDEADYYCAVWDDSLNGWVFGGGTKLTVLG
B6: anti-CDH19 antibody 4A2 (Ab ID 13592) (antibody, human IgG1, kappa, V domains shown)
VH: QVQLQESGPGLVKPSQTLSLTCTVSGGSISSSGYYWSWIRQHPGKGLEWIGYIYYTGSAYYNPSLKSRVTISVDTSKNQFSLKLSSVTAADTAVYYCARDGSSGWYFQYWGQGTLVTVSS
VL: EIVLTQSPGTLSLSPGERATLSCRASRNISSSYLAWYQQKPGQAPRLLIYGPSSRATGIPDRFSGSGSGTDFTLTISRLEPEDFTVYYCQQYGSSFTFGPGTKVDIKR
B7: hu anti-<huCDH19> 4A9 VH::huIgG1z / 4A9 VL::huLLC-C1 (Ab ID 13589) (antibody, V domains shown)
VH: QVQLQESGPGLVKPSETLSLTCTVSGGSISGYYWSWIRQPPGKGLEWFAYFSYSGSTNYNPSLKSRVTLSVDTSKNQFSLKLSSVTAADTAVYYCARNWAFHFDFWGQGTLVTVSS
VL: QSVLTQPPSVSGAPGQRVTISCTGSSSNIGTGYAVHWYQQFPGTAPKLLIYGNNNRPSGVPDRFSGSKSGTSASLAITGLQAEDEADYYCQSYDSRLSGWVFGGGTKLTVLG
notes: Recombinant fully human IgG1

Target: T1, rhCDH19(1-43)::FLAG::rhCDH19(44-772), …
Assay: FACS, transfected 293T
Method: (§1) The following binding assay was completed in presence of 2 mM CaCl2. […] Cells were then washed one time and the amount of cell associated Alexa647-labelled Ab was quantitated by flow cytometry. The experiments included mock transfected controls.

Row | binding result | Binder
1 | binds | B1
2 | binds | B2
3 | binds | B3
4 | binds | B4
5 | binds | B5
6 | binds | B6
7 | binds | B7

Target: T2, raCDH19(1-43)::FLAG::raCDH19(44-770), …
Assay: FACS, transfected 293T
Method: as §1

Row | binding result | Binder
8 | binds | B1
9 | binds | B2
10 | binds | B3
11 | no binding (tested: 5 ug/ml) | B4
12 | no binding (tested: 5 ug/ml) | B5
13 | no binding (tested: 5 ug/ml) | B7

Target: T3, muCDH19(44-770), Flag-tagged, on 293T …
Assay: FACS, transfected 293T

Row | binding result | Binder
14 | binds | B1
15 | binds | B2
16 | no binding (tested: 5 ug/ml) | B3
17 | no binding (tested: 5 ug/ml) | B5
18 | no binding (tested: 5 ug/ml) | B7
